Measurements: patent US20140271653A1 (Regeneron, published 2014)

Key:
RSV-F.mmh = target: T1, RSV-F.mmh (Respiratory Syncytial Virus); assay: SPR (Biacore), mAb captured via Fc, soluble RSV-F.mmh injected, 25 C
T1 construct: also called recombinant RSV-F; soluble monomeric RSV-F
Method: Measurements were conducted on a Biacore 4000 or T-200 instrument. […] All Biacore binding studies were performed in HBST running buffer (0.01 M HEPES pH 7.4, 0.15 M NaCl, 3 mM EDTA, 0.005% v/v surfactant P20). Different concentrations of RSV-F.mmh prepared in HBST running buffer were injected over the anti-RSV-F monoclonal antibody captured surface at a flow rate of 30 μl/min (Biacore 4000) or at a flow rate of 50 μl/min (Biacore T-200) and the association of RSV-F.mmh to captured monoclonal antibody was monitored for 6 min or 3 min respectively. The dissociation of RSV-F.mmh from the monoclonal antibody in HBST running buffer was monitored for 8-10 min at 25° C. Kinetic association (kₐ) and dissociation (kd) rate constants were determined by processing and fitting the data to a 1:1 binding model using Scrubber 2.0 curve fitting software. Binding dissociation equilibrium constants (KD) and dissociative half-lives (t½) were calculated from the kinetic rate constants as: KD (M)=kd/kₐ; and t_{1/2} (min)=(ln 2/(60*kd).

[1] = target: RSV-F of RSV subtype A strain A2 (1540) (respiratory syncytial virus subtype A, …, UniProt P03420 26-574); assay: cell-based or functional assay

Row | Binder | Kd (RSV-F.mmh) [nM] | koff (RSV-F.mmh) [s⁻¹] | kon (RSV-F.mmh) [M⁻¹ s⁻¹] | t½ (RSV-F.mmh) [min] | IC50 [pM] for RSV A2 Neutralization, Trial 1 [1] [pM] | IC50 [pM] for RSV A2 Neutralization, Trial 2 [1] [pM] | IC50 [pM] for RSV A2 Neutralization, Trial 3 [1] [pM] | IC50 [pM] for RSV A2 Neutralization, Trial 6 [1] [pM]
1 | H1M3621N (antibody, V domains shown) VH: QVQLEQSGAEVKKPGASVRISCKASGDTFTGYYINWVRQAPGQGLEWMGWINTNSGGTYFSQKFQVRVILTRDTSINTAYMELSRLRSDDTAVYYCARMFYDILTNSDIFDIWGQGTMVTVSS VL: DIQMTQSPSSLSASVGDRVTITCRASQDIRNDLGWYQQKPGKAPKCLIYGASSLQSGVPSRFSGSGSGTEFTLTISSLQPEDFATYYCLQHKNYMYTFGQGTKLEIK | 1.01 | 0.000208 | 205000 | 56 | 582 | 180 |  | 
2 | H1M3624N (antibody, V domains shown, also called H1M2634N) VH: QVQLEQSGAEVKKPGTSVRISCKASGDIFTGYYMNWVRQAPGQGLEWMGWINTNSGGTYFSQRFQGRVTLTRDTSIRTAYMELSRLRSDDTAVYYCARMFYDILTGSDVFDIWGQGTMVTVSS VL: DIQMTQSPSSLSASVGDRVTITCRASQDIRNDLGWYHQKPGKAPKCLIYGASSLQSGVPSRFSGSGSGTEFTLTISSLQPEDFATYYCLQHKNYMYTFGQGTKLEIK | 1.02 | 0.000183 | 179000 | 63 | 540 | 270 | 92 | 
3 | H1M3627N (antibody, V domains shown) VH: EVQLVESGGGLVQPGGSLRLSCAASGFTISNYEMNWVRQAPGKGLEWVSYISTSGITIYYADSVQGRFTISRDNAKNSLYLQLNSLRAEDTAVYYCARGYCTNGVCYPHYYYSDMDVWGQGTTVTVSS VL: DIQMTQSPSSLSASVGDRLTITCRASQTISTYLNWFQQKVGNAPKLLIYSTSSLQSGVPARFSGSGSGTDFTLTISSLQPEDFATYYCQQSYSSPPTFGQGTKVEIK | 2.02 | 0.000523 | 259000 | 22 | 4 | 4 | 5 | 10
